Molecular target: T1, C-terminally FLAG-tagged Cdc123 (S. cerevisiae, UniProt Q05791 1-360)
T1 construct: Cdc123 of S. cerevisiae; also called Cdc123^FLAG; source: S. cerevisiae, in lysate; not shown: FLAG, C-terminal, kept
T1 sequence (looked up): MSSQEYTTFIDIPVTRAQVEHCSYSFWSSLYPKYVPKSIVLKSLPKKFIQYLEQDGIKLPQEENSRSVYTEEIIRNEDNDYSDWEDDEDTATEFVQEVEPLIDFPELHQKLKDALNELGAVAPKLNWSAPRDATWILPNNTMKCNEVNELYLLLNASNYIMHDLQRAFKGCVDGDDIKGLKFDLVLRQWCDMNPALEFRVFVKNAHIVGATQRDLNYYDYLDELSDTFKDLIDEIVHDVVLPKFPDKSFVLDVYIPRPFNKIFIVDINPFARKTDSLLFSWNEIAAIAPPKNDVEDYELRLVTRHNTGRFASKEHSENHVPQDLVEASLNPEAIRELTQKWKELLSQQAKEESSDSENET
Test: co-IP; Cdc123-FLAG precipitated with anti-FLAG beads from yeast extract, 4 °C, 2 h; subunit signal in IP normalised to whole cell extract, Gcd11 set to 100% (n = 3); also SUI2/SUI2 against sui2Δ/SUI2 diploid strains (n = 4)
Details: partners not purified

B1: yeast eIF2γ (Gcd11) (natural protein, UniProt P32481 1-527, looked up)
chain: MSDLQDQEPSIIINGNLEPVGEPDIVEETEVVAQETQETQDADKPKKKVAFTGLEEDGETEEEKRKREFEEGGGLPEQPLNPDFSKLNPLSAEIINRQATINIGTIGHVAHGKSTVVRAISGVQTVRFKDELERNITIKLGYANAKIYKCQEPTCPEPDCYRSFKSDKEISPKCQRPGCPGRYKLVRHVSFVDCPGHDILMSTMLSGAAVMDAALLLIAGNESCPQPQTSEHLAAIEIMKLKHVIILQNKVDLMREESALEHQKSILKFIRGTIADGAPIVPISAQLKYNIDAVNEFIVKTIPVPPRDFMISPRLIVIRSFDVNKPGAEIEDLKGGVAGGSILNGVFKLGDEIEIRPGIVTKDDKGKIQCKPIFSNIVSLFAEQNDLKFAVPGGLIGVGTKVDPTLCRADRLVGQVVGAKGHLPNIYTDIEINYFLLRRLLGVKTDGQKQAKVRKLEPNEVLMVNIGSTATGARVVAVKADMARLQLTSPACTEINEKIALSRRIEKHWRLIGWATIKKGTTLEPIA
notes: Gcd11, eIF2 gamma subunit of S. cerevisiae, untagged endogenous protein detected with antiserum; source: endogenous, S. cerevisiae (W303 derivatives) lysate
  fold increase of coprecipitation in the sui2Δ/SUI2 strain over SUI2/SUI2: 1.3 fold

— paper PMC8844851 (The Journal of Biological Chemistry, 2022)
